This note sets out measurements from patent US20240368668A1, “SUBSTRATES AND BIOMARKERS OF ADAMTS7” (The Broad Institute, Inc., priority 2021, published 2024).

Square brackets hold non-standard residues; d marks the D form. Ends that are not written are not given here.

The target in one assay is T1, mouse ADAMTS7 (Mus musculus, UniProt Q68SA9, E373Q).
T1 construct: Full-length mouse Adamts7 1-1857 (Uniprot Q68SA9, WT or E373Q catalytic mutant); expressed in transfected cells; host or cells: Human Coronary Artery Smooth Muscle Cells (HCA-SMC, Lonza), adenovirus 50 MOI
T1 sequence (Q68SA9 221-1657 E373Q): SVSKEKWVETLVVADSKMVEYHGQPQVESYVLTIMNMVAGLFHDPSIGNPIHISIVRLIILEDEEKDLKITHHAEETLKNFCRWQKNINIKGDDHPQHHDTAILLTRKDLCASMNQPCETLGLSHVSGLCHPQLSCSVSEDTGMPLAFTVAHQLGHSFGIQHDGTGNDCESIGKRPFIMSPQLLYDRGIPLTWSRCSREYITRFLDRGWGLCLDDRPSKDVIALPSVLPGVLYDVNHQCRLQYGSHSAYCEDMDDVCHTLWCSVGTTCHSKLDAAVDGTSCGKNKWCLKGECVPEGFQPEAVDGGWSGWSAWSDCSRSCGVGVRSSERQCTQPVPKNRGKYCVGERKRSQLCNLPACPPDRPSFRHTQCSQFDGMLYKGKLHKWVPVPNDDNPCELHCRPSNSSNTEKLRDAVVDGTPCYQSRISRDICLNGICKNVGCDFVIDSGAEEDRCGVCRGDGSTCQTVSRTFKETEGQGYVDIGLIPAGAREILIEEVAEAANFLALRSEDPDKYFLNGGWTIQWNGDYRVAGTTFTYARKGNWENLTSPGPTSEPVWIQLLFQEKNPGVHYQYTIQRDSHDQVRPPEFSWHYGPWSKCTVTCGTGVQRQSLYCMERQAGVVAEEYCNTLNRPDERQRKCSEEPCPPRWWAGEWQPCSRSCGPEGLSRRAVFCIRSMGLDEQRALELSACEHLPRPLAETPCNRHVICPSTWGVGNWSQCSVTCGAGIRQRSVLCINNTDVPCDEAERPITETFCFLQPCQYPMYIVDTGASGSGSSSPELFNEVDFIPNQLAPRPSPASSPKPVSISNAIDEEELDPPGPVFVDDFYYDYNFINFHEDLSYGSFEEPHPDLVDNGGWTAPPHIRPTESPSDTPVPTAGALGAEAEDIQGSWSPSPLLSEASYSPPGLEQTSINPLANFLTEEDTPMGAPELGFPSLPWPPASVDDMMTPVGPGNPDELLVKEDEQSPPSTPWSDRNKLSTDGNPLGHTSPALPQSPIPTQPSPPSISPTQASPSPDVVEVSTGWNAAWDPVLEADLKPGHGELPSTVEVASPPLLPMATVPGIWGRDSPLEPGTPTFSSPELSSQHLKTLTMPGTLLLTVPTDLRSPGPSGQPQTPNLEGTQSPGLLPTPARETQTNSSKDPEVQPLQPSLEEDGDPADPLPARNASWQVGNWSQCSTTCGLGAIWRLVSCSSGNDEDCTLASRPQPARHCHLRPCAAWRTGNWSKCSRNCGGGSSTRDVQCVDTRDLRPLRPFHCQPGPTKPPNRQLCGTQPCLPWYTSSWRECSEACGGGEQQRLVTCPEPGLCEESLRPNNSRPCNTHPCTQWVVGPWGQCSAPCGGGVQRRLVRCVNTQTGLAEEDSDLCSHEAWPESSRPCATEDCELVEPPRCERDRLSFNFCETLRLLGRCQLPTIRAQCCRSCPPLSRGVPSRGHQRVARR
Kind of assay: TMT10 TAILS N-terminomics, SMC2 experiment (process replicates, trypsin/AspN digest). The settings on record: SMC2_TAILS HC; log fold change of N-terminal peptide, Ad-mADAMTS7 EQ over Luc. The format is cell-based. The source says:
ADAMTS7 Expression, Cell Culture and Preparation of the Secreted Proteins—Full-length mouse Adamts7 1-1857 (Uniprot Q68SA9, WT or E373Q catalytic mutant) with a carboxyl terminal 3xFLAG tag was used to generate custom adenoviruses as previously described. Adeno-CMV-Luciferase (Ad-Luc) from Vector Biolabs was used as a negative control. Human Coronary Artery Smooth Muscle Cells (HCA-SMC) were obtained from Lonza and expanded in Lonza SmGM-2 media in 15 cm tissue culture plates. Twenty-four hours before media collection, near confluent plates were transduced with 50 MOI adenovirus and switched to Lonza Basal SM media with volumes of 20 ml per 15 cm plate. Expression of the Flag tagged ADAMTS7 was confirmed from the media using western blot and detected using the anti-Flag M2-HRP antibody (Sigma, A8592). Collected media was processed by adding protease inhibitors (1 mM EDTA and 1 mM PMSF) and clarified by 500 g×5 min spin at 4 C to pellet cell debris. Cell media supernatants were then passed through a 0.22 um filter and kept chilled. Processed media was then concentrated 50-100× using 3 kDa Centricon Plus-70 filter unit, spun at 3,500 g×60 min at 4 C. Approximately 10% of the processed, concentrated media was set aside for total secretome proteolytic analysis. The remaining 90% of the processed, concentrated media was buffer exchanged into 50 mM HEPES pH 8.0, 150 mM NaCl (2×50 ml) using the 3 kDa Centricon Plus-70 filter unit and concentrated to >2 mg/ml to serve as input for the TAILS experiment. Secretome and TAILS input samples were stored at −80° C.
For the first experiment, referred to as SMC1, 120 ml of media from 6×15 cm dishes was pooled from each condition (Luc, WT, EQ) and processed to produce three separate inputs for the TAILS experiment. Luc, WT and EQ inputs from the SMC1 experiment were each divided into triplicate 400 ug samples to generate technical replicate TAILS data. For the second experiment, referred to as SMC2, media was processed separately in triplicate for each condition (Luc1, Luc2, Luc3, WT1, WT2, WT3, EQ1, EQ2, EQ3) using 60 ml of media from 3×15 cm dishes for each process replicate. Inputs from the SMC2 experiment used process replicates of 300 ug each to generate TAILS data. The third experiment used input from cultured Human umbilical vein endothelial cells (HUVEC) from Lifeline Cell Technology grown in VascuLife Media and transduced in Lifeline Basal EC (+bFGF2 10 ng/ml). The HUVEC experiment used the same strategy as the SMC2 experiment, with 40 ml of media from 2×15 cm dishes for each process replicate and used 200 ug each to generate TAILS data. Inputs for process replicate experiments were restricted to the lowest concentration from the 9 parallel samples for SMC2 or HUVEC.
TMT10 isotopic labeling and negative selection of non-labeled peptides-Sample preparation was performed based on the TAILS protocol from the Overall lab with some modifications. From a single experiment, nine parallel protein samples in 50 mM HEPES pH 8.0, 150 mM NaCl were separately denatured with guanidinium chloride (Sigma, G4505) to reach a final concentration of 2.5M guanidinium chloride and 250 mM HEPES and incubated at 65° C. for 15 min. Reduction was achieved through addition of tris(2-carboxylethyl) phosphine (TCEP) at a final concentration of […] and incubated at 65° C. for 45 min. Alkylation reaction was performed with addition of iodoacetamide (IAA, Sigma, A3221) to a final concentration of 10 mM IAA for 15 min at room temperature in the dark. Following denaturation, reduction and alkylation steps, ten percent of each of the nine parallel protein samples was removed and combined to serve as a pooled reference. Isobaric tags were added to free amine groups using the TMT10plex Isobaric Mass Tagging Kit (ThermoFisher, 90113) with TMT channels randomly assigned to the nine samples and TMT 131 assigned to the pooled reference. […]
In turn, “LOXL1_219 (VASAGVIYPYQPR; listed as Homo sapiens)” displayed a logFC.mEQ.over.Luc of 0.09.
Still for that read-out and setting: the result for “LOXL2_37 (FQQPAPEYHQPQAPANVAKIQLR; listed as Homo sapiens)” reads −0.03; that for “LOXL2_38 ([code q]QPAPEYHQPQAPANVAKIQLR; not fully specified; listed as Homo sapiens)”, 0.06.
Substance “LTBP1_393 (LTATNFR; listed as Homo sapiens)” gave a logFC.mEQ.over.Luc of 0.29.
On the same count and under the same terms, the result for “LTBP1_540 (HQQVIPHVYPVAAKTQLGR; listed as Homo sapiens)” reads 0.05.

Staying with this assay, now noted: SMC2_TAILS HC; log fold change, mEQ over Luc.
“AEBP1_37 (FLEGFLSELEPEPR; listed as Homo sapiens)” showed a logFC.mEQ.over.Luc of −0.27.
Still for that read-out and setting: the result for “CCDC80_66 (LEEPNLQPLQR; listed as Homo sapiens)” reads −0.13; that for “EFEMP1_124 (AVAGPEMQTGR; listed as Homo sapiens)”, −0.46.
Same read-out and setting: the result for “EFEMP1_125 (VAGPEMQTGR; listed as Homo sapiens)” reads −0.99.
Consider “FBLN2_259 (ALGPPAPVQAKAR; listed as Homo sapiens)”, for which the logFC.mEQ.over.Luc is listed as −0.27.
The same measure, in the same setting: in the case of “FBLN2_260 (LGPPAPVQAKAR; listed as Homo sapiens)” it was −0.44; in that of “FBN1_29 (LEAGNVKETR; listed as Homo sapiens)”, −0.24; in that of “FBN1_53 (LKGPNVCGSR; listed as Homo sapiens)”, −0.25.
Turning to “FLNA_1285 (LTQTGGPHVKAR; listed as Homo sapiens)”, the logFC.mEQ.over.Luc is on record as −1.35.
As to “FN1_36 (MVQPQSPVAVSQSKPGCYDNGKHYQINQQWER; listed as Homo sapiens)”, the logFC.mEQ.over.Luc is given as −0.11.
On the same count and under the same terms, in the case of “FN1_40 (QSPVAVSQSKPGCYDNGKHYQINQQWER; listed as Homo sapiens)” it was −0.06.
The same measure, in the same setting: the result for “FN1_1143 (LTPGVEYVYTIQVLR; listed as Homo sapiens)” reads −0.49; that for “FN1_1656 (SSSPVTGYR; listed as Homo sapiens)”, −0.65.
On the same count and under the same terms, in the case of “GSN_413 (HIANVER; listed as Homo sapiens)” it was 0.18.
For “HSPG2_275 (LLPGSVR; listed as Homo sapiens)”, the logFC.mEQ.over.Luc is reported as −0.36.
The substance “HSPG2_2331 (ANLAYPAGSTQPIR; listed as Homo sapiens)” came in with a logFC.mEQ.over.Luc of −0.19.
Still for that read-out and setting: the result for “HSPG2_2333 (LAYPAGSTQPIR; listed as Homo sapiens)” reads −0.22.
Still for that read-out and setting: in the case of “IGFBP3_31 (SAGLGPVVR; listed as Homo sapiens)” it was −0.31; in that of “IGFBP3_32 (AGLGPVVR; listed as Homo sapiens)”, −0.51; in that of “IGFBP7_101 (AAGGPGVSGVCVCKSR; listed as Homo sapiens)”, −0.04.
For “LOX_58 (LSLGSQYQPQR; listed as Homo sapiens)”, the logFC.mEQ.over.Luc is recorded as −0.08.
The substance “LOX_123 (HWFQAGYSTSR; listed as Homo sapiens)” yielded a logFC.mEQ.over.Luc of 0.00.
The same measure, in the same setting: in the case of “LOX_124 (WFQAGYSTSR; listed as Homo sapiens)” it was −0.11; in that of “LOX_126 (QAGYSTSR; listed as Homo sapiens)”, −0.26.
